From article PMC2854098 (Molecular Biology of the Cell, 2010) come the findings set out here.

The target in this experiment is recombinant, active murine ERK2 protein (murine, UniProt P63085 1-358). As to the kind of experiment: pull-down.

B1: recombinant h1CaP-CBD (natural protein, ferret, UniProt Q9GK38 1-297, looked up)
chain: MSSAHFNRGPAYGLSAEVKNKLAQKYDHQREQELREWIEGVTGRRIGSNFMDGLKDGIILCEFINKLQPGSVKKVNESTQNWHQLENIGNFIKAITKYGVKPHDIFEANDLFENTNHTQVQSTLLALASMAKTKGNKVNVGVKYAEKQERKFEPEKLREGRNIIGLQMGTNKFASQQGMTAYGTRRHLYDPKLGTDQPLDQATISLQMGTNKGASQAGMTAPGTKRQIFEPGLGMEHCDTLNVSLQMGSNKGASQRGMTVYGLPRQVYDPKYCLTPEYPELGEPTHNHHAHNYYNSA
B1: the binding result was “binds”.

B2: recombinant h3/acidic CaP-CBD (natural protein, rat, UniProt P37397 1-330, looked up)
chain: MTHFNKGPSYGLSAEVKNKIASKYDQQAEEDLRNWIEEVTGMGIGTNFQLGLKDGIILCELINKLQPGSVKKVNESSLNWPQLENIGNFIKAIQAYGMKPHDIFEANDLFENGNMTQVQTTLVALAGLAKTKGFHTTIDIGVKYAEKQTRRFDEGKLKAGQSVIGLQMGTNKCASQAGMTAYGTRRHLYDPKMQTDKPFDQTTISLQMGTNKGASQAGMSAPGTRRDIYDQKLTLQPVDNSTISLQMGTNKVASQKGMSVYGLGRQVYDPKYCAAPTEPVIHNGSQGTGTNGSEISDSDYQAEYPDEYHGEYPDEYPREYQYGDDQGIDY
As for B2, the binding result was “binds”.
